Laboratory results published in PMC11949838, “FUT10 and FUT11 are protein O-fucosyltransferases that modify protein EMI domains” (Nature Chemical Biology, 2025).

T1: GFP–FUT10 (POFUT3) (Homo sapiens, UniProt Q6P4F1)
T1 sequence (Q6P4F1 34-479 limits assumed): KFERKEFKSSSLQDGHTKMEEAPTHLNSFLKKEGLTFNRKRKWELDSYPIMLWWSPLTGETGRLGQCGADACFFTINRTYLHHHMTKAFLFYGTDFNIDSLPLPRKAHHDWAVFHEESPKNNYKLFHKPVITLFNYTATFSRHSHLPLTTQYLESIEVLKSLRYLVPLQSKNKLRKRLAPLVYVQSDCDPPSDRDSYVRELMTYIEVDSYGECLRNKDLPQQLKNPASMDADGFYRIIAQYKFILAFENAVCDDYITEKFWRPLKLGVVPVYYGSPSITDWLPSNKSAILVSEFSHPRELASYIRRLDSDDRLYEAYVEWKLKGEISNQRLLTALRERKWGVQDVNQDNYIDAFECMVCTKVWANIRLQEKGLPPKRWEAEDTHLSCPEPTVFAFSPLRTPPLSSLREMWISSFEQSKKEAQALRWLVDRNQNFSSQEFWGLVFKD

T2: GFP–FUT8 (Homo sapiens, UniProt Q9BYC5)
T2 sequence (Q9BYC5 31-575 limits assumed): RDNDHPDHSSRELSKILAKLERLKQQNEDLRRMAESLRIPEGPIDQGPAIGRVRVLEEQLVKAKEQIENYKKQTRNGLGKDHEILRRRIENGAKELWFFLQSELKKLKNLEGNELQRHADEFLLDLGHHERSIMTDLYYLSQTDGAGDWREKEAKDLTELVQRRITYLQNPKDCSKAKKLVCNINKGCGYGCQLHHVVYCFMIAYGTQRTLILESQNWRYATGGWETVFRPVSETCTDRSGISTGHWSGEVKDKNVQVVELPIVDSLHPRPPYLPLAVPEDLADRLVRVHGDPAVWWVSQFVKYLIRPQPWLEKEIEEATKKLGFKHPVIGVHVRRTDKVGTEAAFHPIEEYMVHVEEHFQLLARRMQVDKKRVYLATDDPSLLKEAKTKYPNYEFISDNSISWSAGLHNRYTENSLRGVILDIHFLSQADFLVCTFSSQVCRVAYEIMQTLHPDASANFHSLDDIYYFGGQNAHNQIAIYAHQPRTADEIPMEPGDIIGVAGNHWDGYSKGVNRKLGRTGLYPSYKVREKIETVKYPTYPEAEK

B1: GFP–FUT11 (POFUT4) (Homo sapiens) (protein)
chain: AGGEAEWAEPWDGAVFRPPSALGAVGVTRSSGTPRPGREEAGDLPVLLWWSPGLFPHFPGDSERIECARGACVASRNRRALRDSRTRALLFYGTDFRASAAPLPRLAHQSWALLHEESPLNNFLLSHGPGIRLFNLTSTFSRHSDYPLSLQWLPGTAYLRRPVPPPMERAEWRRRGYAPLLYLQSHCDVPADRDRYVRELMRHIPVDSYGKCLQNRELPTARLQDTATATTEDPELLAFLSRYKFHLALENAICNDYMTEKLWRPMHLGAVPVYRGSPSVRDWMPNNHSVILIDDFESPQKLAEFIDFLDKNDEEYMKYLAYKQPGGITNQFLLDSLKHREWGVNDPLLPNYLNGFECFVCDYELARLDAEKAHAASPGDSPVFEPHIAQPSHMDCPVPTPGFGNVEEIPENDSWKEMWLQDYWQGLDQGEALTAMIHNNETEQTKFWDYLHEIFMKRQHL
B2: Multimerin-1 (MMRN1): FX KO (protein)
parent chain: MKGARLFVLLSSLWSGGIGLNNSKHSWTIPEDGNSQKTMPSASVPPNKIQSLQILPTTRVMSAEIATTPEARTSEDSLLKSTLPPSETSAPAEGVRNQTLTSTEKAEGVVKLQNLTLPTNASIKFNPGAESVVLSNSTLKFLQSFARKSNEQATSLNTVGGTGGIGGVGGTGGVGNRAPRETYLSRGDSSSSQRTDYQKSNFETTRGKNWCAYVHTRLSPTVILDNQVTYVPGGKGPCGWTGGSCPQRSQKISNPVYRMQHKIVTSLDWRCCPGYSGPKCQLRAQEQQSLIHTNQAESHTAVGRGVAEQQQQQGCGDPEVMQKMTDQVNYQAMKLTLLQKKIDNISLTVNDVRNTYSSLEGKVSEDKSREFQSLLKGLKSKSINVLIRDIVREQFKIFQNDMQETVAQLFKTVSSLSEDLESTRQIIQKVNESVVSIAAQQKFVLVQENRPTLTDIVELRNHIVNVRQEMTLTCEKPIKELEVKQTHLEGALEQEHSRSILYYESLNKTLSKLKEVHEQLLSTEQVSDQKNAPAAESVSNNVTEYMSTLHENIKKQSLMMLQMFEDLHIQESKINNLTVSLEMEKESLRGECEDMLSKCRNDFKFQLKDTEENLHVLNQTLAEVLFPMDNKMDKMSEQLNDLTYDMEILQPLLEQGASLRQTMTYEQPKEAIVIRKKIENLTSAVNSLNFIIKELTKRHNLLRNEVQGRDDALERRINEYALEMEDGLNKTMTIINNAIDFIQDNYALKETLSTIKDNSEIHHKCTSDMETILTFIPQFHRLNDSIQTLVNDNQRYNFVLQVAKTLAGIPRDEKLNQSNFQKMYQMFNETTSQVRKYQQNMSHLEEKLLLTTKISKNFETRLQDIESKVTQTLIPYYISVKKGSVVTNERDQALQLQVLNSRFKALEAKSIHLSINFFSLNKTLHEVLTMCHNASTSVSELNATIPKWIKHSLPDIQLLQKGLTEFVEPIIQIKTQAALSNLTCCIDRSLPGSLANVVKSQKQVKSLPKKINALKKPTVNLTTVLIGRTQRNTDNIIYPEEYSSCSRHPCQNGGTCINGRTSFTCACRHPFTGDNCTIKLVEENALAPDFSKGSYRYAPMVAFFASHTYGMTIPGPILFNNLDVNYGASYTPRTGKFRIPYLGVYVFKYTIESFSAHISGFLVVDGIDKLAFESENINSEIHCDRVLTGDALLELNYGQEVWLRLAKGTIPAKFPPVTTFSGYLLYRT
B3: Multimerin-1 (MMRN1): FUT10/11 DKO (protein)
parent chain: B2 parent chain
B4: Multimerin-1 (MMRN1): T265A (protein)
parent chain: B2 parent chain
B5: Multimerin-1 (MMRN1): T216A (protein)
parent chain: B2 parent chain
B6: Multimerin-1 (MMRN1): T216A/T265A (protein)
parent chain: B2 parent chain
B7: Multimerin-1 (MMRN1): T1055A (protein)
parent chain: B2 parent chain

Assays:
GFP–FUT10 (POFUT3) = molecular target: T1, GFP–FUT10 (POFUT3); test: nano LC-MS/MS of O-fucosylated EMI peptides; assay type: biochemical; conditions: donor; 100 μM with 0.5 μM non-fucosylated MMRN1 N-terminal EMI, 50 mM HEPES pH 7, 37 °C
GFP–FUT8 = molecular target: T2, GFP–FUT8; test: nano LC-MS/MS of N-glycan fucosylation on EMI; assay type: biochemical; conditions: donor; 100 μM with 0.5 μM non-fucosylated MMRN1 N-terminal EMI, 50 mM HEPES pH 7, 37 °C, 30 min; positive control
[1] = molecular target: human MMRN1 N-terminal EMI-Myc-His6 (first 290 amino acids of Multimerin-1, wild type) (human) (UniProt Q13201)
[2] = substrate: C[C@@H]1O[C@H](OP(=O)(O)OP(=O)(O)OC[C@H]2O[C@@H](n3cnc4c(=O)[nH]c(N)nc43)[C@H](O)[C@@H]2O)[C@@H](O)[C@H](O)[C@@H]1O; test: nano LC-MS/MS glycopeptide quantification, Michaelis-Menten fit; assay type: biochemical, Homo sapiens; conditions: donor, 20 μM non-fucosylated MMRN1 N-terminal EMI, 0.3 mM MnCl2, 50 mM HEPES pH 7, 37 °C, 15 min, same value for T216 and T265 sites
[3] = anti-Myc western blot of medium, normalised to IgG
[4] = western blot of cell lysates; conditions: glycan lost; control: wild type full-length MMRN1
[5] = glycan lost, control: wild type full-length MMRN1

Molecule	expression_or_secretion [4]	expression_or_secretion, other: % reduction vs WT [3, 5]	other results
C[C@@H]1O[C@H](OP(=O)(O)OP(=O)(O)OC[C@H]2O[C@@H](n3cnc4c(=O)[nH]c(N)nc43)[C@H](O)[C@@H]2O)[C@@H](O)[C@H](O)[C@@H]1O [GDP-fucose]			nano LC-MS/MS of O-fucosylated EMI peptides (GFP–FUT10 (POFUT3)): Both GFP–FUT10 and GFP–FUT11 can independently add fucose to EMI substrates; nano LC-MS/MS of N-glycan fucosylation on EMI (GFP–FUT8): GFP–FUT8 was used as a positive control, and it robustly added fucose to N-glycans
GFP–FUT11 (human FUT11 lacking the transmembrane domain, from pGEn2-GFP-hFUT11) (from UniProt Q495W5 1-492) (enzyme)			Km for non-fucosylated N-terminal EMI at the T216 site; O-fucosylation kinetics by LC-MS/MS, Michaelis–Menten fit, 50 nM enzyme, 100 μM GDP-fucose, 0.3 mM MnCl2, 37 °C, 15 min [1]: 6.74 µM
B1			Km [2]: 5 µM
B2			expression_or_secretion, other: % reduction vs WT ([3]; glycan lost, control: N-terminal EMI in WT HEK293T cells): decreases
B3			expression_or_secretion, other: % reduction vs WT ([3]; glycan changed form, control: N-terminal EMI in WT HEK293T cells): decreases
B4	no change	no change	
B5	no change	decreases	
B6	no change	decreases	
B7	no change	abolishes	
